Reference: US20230002481A1 (Chugai, published 2023)

Biological target: T1, recombinant cyno C1r2s2 His/Flag tetramer (cynomolgus monkey, limits assumed)
T1 construct: Heterotetramer of two C1r-His and two C1s-Flag chains, co-expressed in FreeStyle293-F cells; also called cyno C1r2s2s
T1 chain 1: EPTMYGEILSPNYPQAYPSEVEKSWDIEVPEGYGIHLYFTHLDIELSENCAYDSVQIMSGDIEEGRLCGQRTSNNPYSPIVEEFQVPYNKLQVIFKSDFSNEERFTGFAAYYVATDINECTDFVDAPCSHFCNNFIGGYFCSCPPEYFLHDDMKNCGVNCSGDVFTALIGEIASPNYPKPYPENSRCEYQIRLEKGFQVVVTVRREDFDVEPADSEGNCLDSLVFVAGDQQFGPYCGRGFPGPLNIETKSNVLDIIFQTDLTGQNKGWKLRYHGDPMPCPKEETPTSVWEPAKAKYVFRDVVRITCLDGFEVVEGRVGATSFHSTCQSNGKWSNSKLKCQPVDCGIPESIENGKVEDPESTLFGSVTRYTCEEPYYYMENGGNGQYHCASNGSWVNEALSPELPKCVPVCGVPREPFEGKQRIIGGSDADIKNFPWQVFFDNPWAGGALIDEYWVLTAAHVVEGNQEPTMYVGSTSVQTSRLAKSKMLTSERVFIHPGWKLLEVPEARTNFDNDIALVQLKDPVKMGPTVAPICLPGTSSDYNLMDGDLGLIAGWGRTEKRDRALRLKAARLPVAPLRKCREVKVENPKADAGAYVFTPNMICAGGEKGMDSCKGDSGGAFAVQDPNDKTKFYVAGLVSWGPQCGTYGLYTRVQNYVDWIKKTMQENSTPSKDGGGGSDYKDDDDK
T1 chain 2: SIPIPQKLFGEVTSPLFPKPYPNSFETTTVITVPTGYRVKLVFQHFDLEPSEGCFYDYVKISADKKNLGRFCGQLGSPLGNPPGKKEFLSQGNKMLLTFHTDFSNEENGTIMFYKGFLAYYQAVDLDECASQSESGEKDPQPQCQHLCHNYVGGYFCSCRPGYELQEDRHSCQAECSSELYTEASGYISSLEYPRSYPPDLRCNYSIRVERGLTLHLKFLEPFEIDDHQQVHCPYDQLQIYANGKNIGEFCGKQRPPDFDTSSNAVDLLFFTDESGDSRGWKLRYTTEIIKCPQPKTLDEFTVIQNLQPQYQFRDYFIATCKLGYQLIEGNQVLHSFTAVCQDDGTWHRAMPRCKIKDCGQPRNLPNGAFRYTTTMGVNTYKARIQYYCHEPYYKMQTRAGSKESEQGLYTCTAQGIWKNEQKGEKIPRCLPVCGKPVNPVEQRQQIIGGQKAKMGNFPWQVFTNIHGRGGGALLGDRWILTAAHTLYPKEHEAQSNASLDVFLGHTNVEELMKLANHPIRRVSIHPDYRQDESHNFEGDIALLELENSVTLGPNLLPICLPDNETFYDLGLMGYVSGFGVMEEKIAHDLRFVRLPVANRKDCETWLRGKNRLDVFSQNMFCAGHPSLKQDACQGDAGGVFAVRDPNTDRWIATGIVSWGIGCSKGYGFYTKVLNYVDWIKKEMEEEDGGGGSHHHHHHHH
Assay: SPR (Biacore), antibody captured on ProA/G, antigen as analyte, 37 C, pH7.4, 1.2 mM CaCl2; pH 7.4
Description: The kinetic parameters of anti-C1s antibodies against recombinant human C1s (as described in PCT/JP2018/042054), human C1r2s2, and cyno C1r2s2 His/Flag (also referred as cyno C1r2s2 in the Table and Figures) were assessed at pH7.4 and pH5.8, at 37 degrees C. using BIACORE (registered trademark) T200 instrument (GE Healthcare) or BIACORE 4000 (GE Healthcare). ProAG (Pierce) was immobilized onto a CM4 sensorchip using amine coupling kit (GE Healthcare) according to the recommended settings by GE Healthcare. Antibodies and analytes were diluted into the respective running buffers, ACES pH7.4 and pH5.8 (20 mM ACES, 150 mM NaCl, 1.2 mM CaCl₂, 1 mg/ml BSA, 1 mg/ml CMD, 0.05% Tween 20, 0.005 w/v % NaN₃). Each antibody was captured onto the sensor surface by ProA/G. Antibody capture levels were typically 100-200 resonance units (RU). Then, recombinant C1s was injected at concentrations of 25 and 50 nM followed by dissociation at pH7.4 and pH5.8. The surface was regenerated using 10 mM Glycine-HCl, pH1.5. Kinetic parameters at neutral pH conditions and acidic conditions were determined by fitting the sensorgrams with 1:1 binding model using BIACORE (registered trademark) T200 Evaluation software, version 2.0 (GE Healthcare) or BIACORE 4000 Evaluation software. The dissociation rate at pH5.8 (after dissociation at pH7.4, indicated as pH5.8* in TABLE 2) was determined by processing and fitting data using Scrubber 2.0 (BioLogic Software) curve fitting software. The association rate (ka), dissociation rate (kd), binding affinity (KD) at pH7.4 and pH5.8 condition, and dissociation rate (kd) at pH5.8* condition of the antibodies are listed in TABLE 2. Some kinetic parameters of COS0098pHv1 in acidic condition were not correctly calculated because of its weak binding response.
Also, to observe the cross-reactivity of anti-C1s antibodies against human C1r2s2 and cyno C1r2s2 (cyno C1r2s2 His/Flag), BIACORE (registered trademark) kinetics analysis was performed.

Kd: 0.0821 nM
koff: 8.1e-05 s⁻¹
kon: 987000 M⁻¹ s⁻¹
B1: COS0098bb (antibody, V domains shown)
VH: QSVEESGGRLVTPGTPLTLTCTVSGFSLTKYTVSWVRQAPGKGLEWIGIINTGGSAYYATWAKGRFTFSKTSTTVDLQITSPTTEDTATYFCARGNGDTDYTNLWGPGTLVTVSS
VL: QVLTQTPSSVSEPVGGTVTINCQASENIYSALAWYQQKPGQPPKLLIYGASNLESGVPSRFKGSGSGTQFTLTISDLECADAATYYCQQYYFTSSTFGGGTKVEIK
notes: Anti-C1s rabbit antibody, parent of COS0098pHv1; the antibody was captured by ProA/G; also called anti-C1s antibody COS0098bb
